Measurements published in the supplement of paper PMC10065799, “High-throughput profiling of sequence recognition by tyrosine kinases and SH2 domains using bacterial peptide display” (eLife, 2023).

The sequences below were run on AncSZ (assay: phosphorylation enrichment, bacterial display (enrichment ratio); higher = better substrate or ligand; peptides without Tyr show the background).
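Also: 11-residue human phosphosite peptides and single-mutation variants displayed on the E. coli surface, counted by deep sequencing, each peptide's frequency after selection divided by its frequency in the unselected input library; frequency after pTyr selection over input frequency; kinase dosed for 20-30% of maximal phosphorylation in three min.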

Point of comparison: KRFRIYHLATS [BRCA2_Y3009_YF], phosphorylation enrichment 0.567. Against it:
- IRNRDYDDIDD [TTYH2_Y424_T419I] — higher, 1.07
- PSDLLYILDIQ [ITGA2B_Y845] — higher, 2.77
- MDFRSYPREFG [RBM10_Y44_YF] — higher, 0.606
- LARDIYKNDFF [ROS1_Y2110_YF] — higher, 2.31
- RAADFYSQQMA [GBP6_Y334_YF] — higher, 0.798
- AYRRGYFDEEM [PLEC_Y2971] — higher, 1.13
- SAPDSYIGIGN [SLC38A4_Y27] — higher, 0.669
- LKEIHYPPYTD [ALDH3B2_Y362] — higher, 1.18
- IRKTEYPFSSE [ATP2C1_Y452_A450T] — higher, 0.582
- EKLQKYYRKNP [EHHADH_Y682_Q685K] — higher, 0.575
- YKIYRYTLNDN [FN1_Y1975_L1974R] — higher, 1.13
- CEETFYTMKMN [MASP2_Y401_V405M] — higher, 1.99
- VYLGAYDCFLP [SLC22A5_Y486_R488C] — higher, 2.18
- PTTMTYFPHFD [HBA1_Y43_K41M] — higher, 0.823
- PPSGEYFGHCG [TRIP6_Y275_Q278H] — higher, 1.69
- RLLRGYRQDAY [HLA-A_Y137_F133L] — higher, 0.985
- STKPQYQPGEN [SRC_Y530_E527K] — higher, 0.575
- RRIHSYRGHVW [VHL_Y112_L116V] — higher, 1.56
- IDQDKYAVHFI [FLNA_Y2388_R2391H] — higher, 0.886
- TLERHYKELQA [SPTBN2_Y834_E835K] — higher, 0.713
- KRGIDYILWHM [FRMD1_Y225_R228W] — higher, 1.04
- KIVQDYLEKFF [MMP8_Y36_T32I_YF] — higher, 1.19
- TKDTIYKQPMF [GBA_Y451_F450I] — higher, 0.704
- IKRIAYEFVEM [ADA_Y84] — higher, 0.85
- EKAEVYGSENE [RIOK2_Y348] — higher, 1.11
- QEVLEYFMKQM [PIK3CA_Y1038_A1035V] — higher, 2.18
- VVEVTYDDVPI [FLNB_Y1308] — higher, 2.02
- ANVKWYRNGRE — higher, 0.867
- HEEDNYIELIP [NWD2_Y566] — higher, 3.19
- HGQVNYEEFVQ [CALM2_Y139_D134H] — higher, 1.89
- KEDPEYKKKFR [FAM161A_Y278_E273K] — higher, 0.749
- GSERDYTFEEL [EIF2S2_Y174_YF] — higher, 1.14

What follows are sequences tested against EPHB1 (UniProt P54762) in the same assay as above.
Chain of EPHB1 (P54762 whole entry, looked up): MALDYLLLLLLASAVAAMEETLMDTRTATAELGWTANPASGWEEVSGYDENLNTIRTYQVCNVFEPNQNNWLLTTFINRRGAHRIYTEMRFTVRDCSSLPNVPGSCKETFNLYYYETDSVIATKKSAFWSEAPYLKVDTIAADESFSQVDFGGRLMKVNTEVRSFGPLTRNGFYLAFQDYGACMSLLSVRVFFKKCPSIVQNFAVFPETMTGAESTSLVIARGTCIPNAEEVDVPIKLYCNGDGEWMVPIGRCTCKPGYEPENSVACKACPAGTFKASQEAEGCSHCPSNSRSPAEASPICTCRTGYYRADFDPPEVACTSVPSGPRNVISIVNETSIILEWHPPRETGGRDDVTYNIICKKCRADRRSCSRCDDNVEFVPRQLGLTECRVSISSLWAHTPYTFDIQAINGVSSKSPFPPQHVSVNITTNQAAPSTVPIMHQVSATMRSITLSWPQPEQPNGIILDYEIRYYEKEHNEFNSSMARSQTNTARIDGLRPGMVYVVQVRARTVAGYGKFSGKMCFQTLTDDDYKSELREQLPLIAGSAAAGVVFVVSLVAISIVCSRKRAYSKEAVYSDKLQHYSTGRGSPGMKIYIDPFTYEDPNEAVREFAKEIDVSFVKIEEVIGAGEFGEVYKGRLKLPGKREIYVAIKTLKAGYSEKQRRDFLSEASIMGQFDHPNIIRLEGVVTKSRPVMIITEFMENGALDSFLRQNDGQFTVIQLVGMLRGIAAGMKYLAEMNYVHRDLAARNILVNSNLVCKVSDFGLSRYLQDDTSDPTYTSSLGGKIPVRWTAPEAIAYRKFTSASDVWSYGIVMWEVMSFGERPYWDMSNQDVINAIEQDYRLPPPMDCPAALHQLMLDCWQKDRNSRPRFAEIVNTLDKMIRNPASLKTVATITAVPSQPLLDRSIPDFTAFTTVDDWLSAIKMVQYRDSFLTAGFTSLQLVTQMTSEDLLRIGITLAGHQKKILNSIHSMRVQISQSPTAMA

Point of comparison: AYRRGYFDEEM [PLEC_Y2971], phosphorylation enrichment 0.469. Against it:
- IRNRDYDDIDD [TTYH2_Y424_T419I] — lower, 0.466
- PSDLLYILDIQ [ITGA2B_Y845] — higher, 1.07
- MDFRSYPREFG [RBM10_Y44_YF] — lower, 0.437
- LARDIYKNDFF [ROS1_Y2110_YF] — higher, 0.962
- RAADFYSQQMA [GBP6_Y334_YF] — lower, 0.425
- SAPDSYIGIGN [SLC38A4_Y27] — higher, 0.484
- LKEIHYPPYTD [ALDH3B2_Y362] — higher, 0.735
- IRKTEYPFSSE [ATP2C1_Y452_A450T] — lower, 0.426
- EKLQKYYRKNP [EHHADH_Y682_Q685K] — higher, 0.471
- YKIYRYTLNDN [FN1_Y1975_L1974R] — lower, 0.467
- CEETFYTMKMN [MASP2_Y401_V405M] — higher, 0.939
- VYLGAYDCFLP [SLC22A5_Y486_R488C] — higher, 5.46
- PTTMTYFPHFD [HBA1_Y43_K41M] — higher, 0.603
- KRFRIYHLATS [BRCA2_Y3009_YF] — lower, 0.353
- PPSGEYFGHCG [TRIP6_Y275_Q278H] — higher, 0.85
- RLLRGYRQDAY [HLA-A_Y137_F133L] — lower, 0.374
- STKPQYQPGEN [SRC_Y530_E527K] — lower, 0.363
- RRIHSYRGHVW [VHL_Y112_L116V] — higher, 0.733
- IDQDKYAVHFI [FLNA_Y2388_R2391H] — higher, 0.483
- TLERHYKELQA [SPTBN2_Y834_E835K] — lower, 0.363
- KRGIDYILWHM [FRMD1_Y225_R228W] — higher, 0.765
- KIVQDYLEKFF [MMP8_Y36_T32I_YF] — higher, 0.662
- TKDTIYKQPMF [GBA_Y451_F450I] — higher, 0.503
- IKRIAYEFVEM [ADA_Y84] — lower, 0.387
- EKAEVYGSENE [RIOK2_Y348] — lower, 0.464
- QEVLEYFMKQM [PIK3CA_Y1038_A1035V] — higher, 1.15
- VVEVTYDDVPI [FLNB_Y1308] — higher, 1.57
- ANVKWYRNGRE — higher, 0.509
- HEEDNYIELIP [NWD2_Y566] — higher, 2.98
- HGQVNYEEFVQ [CALM2_Y139_D134H] — higher, 6.37
- KEDPEYKKKFR [FAM161A_Y278_E273K] — higher, 0.499
- GSERDYTFEEL [EIF2S2_Y174_YF] — higher, 0.571

What follows are sequences tested against EPHB2 (UniProt P29323) in the same assay as above.
Chain of EPHB2 (P29323 whole entry, looked up): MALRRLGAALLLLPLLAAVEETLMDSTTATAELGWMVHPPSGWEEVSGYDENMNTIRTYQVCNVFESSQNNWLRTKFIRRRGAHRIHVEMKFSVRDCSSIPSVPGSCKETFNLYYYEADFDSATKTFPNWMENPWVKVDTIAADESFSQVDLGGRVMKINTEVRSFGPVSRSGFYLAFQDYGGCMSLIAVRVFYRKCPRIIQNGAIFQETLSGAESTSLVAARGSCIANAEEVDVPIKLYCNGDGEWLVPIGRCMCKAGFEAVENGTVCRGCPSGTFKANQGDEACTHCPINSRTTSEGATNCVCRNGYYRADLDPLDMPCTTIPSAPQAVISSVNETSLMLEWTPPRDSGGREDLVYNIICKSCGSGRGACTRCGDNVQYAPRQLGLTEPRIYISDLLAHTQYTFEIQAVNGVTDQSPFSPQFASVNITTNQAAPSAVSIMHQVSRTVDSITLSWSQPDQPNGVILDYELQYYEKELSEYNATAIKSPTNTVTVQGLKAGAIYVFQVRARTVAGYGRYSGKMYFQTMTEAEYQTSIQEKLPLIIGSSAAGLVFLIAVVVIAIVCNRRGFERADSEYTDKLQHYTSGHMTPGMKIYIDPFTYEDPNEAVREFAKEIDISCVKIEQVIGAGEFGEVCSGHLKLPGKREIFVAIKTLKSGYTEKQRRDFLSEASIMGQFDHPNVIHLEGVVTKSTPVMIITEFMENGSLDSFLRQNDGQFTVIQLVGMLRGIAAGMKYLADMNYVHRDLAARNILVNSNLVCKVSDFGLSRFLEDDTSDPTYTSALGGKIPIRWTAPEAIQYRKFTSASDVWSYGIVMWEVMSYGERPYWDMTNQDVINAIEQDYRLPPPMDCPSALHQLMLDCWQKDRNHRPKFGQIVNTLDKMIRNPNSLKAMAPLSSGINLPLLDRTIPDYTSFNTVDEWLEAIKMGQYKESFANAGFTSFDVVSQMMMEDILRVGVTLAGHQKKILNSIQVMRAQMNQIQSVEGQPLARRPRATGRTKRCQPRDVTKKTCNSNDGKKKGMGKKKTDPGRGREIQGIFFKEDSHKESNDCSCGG

Point of comparison: CEETFYTMKMN [MASP2_Y401_V405M], phosphorylation enrichment 0.894. Against it:
- IRNRDYDDIDD [TTYH2_Y424_T419I] — lower, 0.575
- PSDLLYILDIQ [ITGA2B_Y845] — higher, 1.06
- MDFRSYPREFG [RBM10_Y44_YF] — lower, 0.454
- LARDIYKNDFF [ROS1_Y2110_YF] — higher, 0.933
- RAADFYSQQMA [GBP6_Y334_YF] — lower, 0.468
- AYRRGYFDEEM [PLEC_Y2971] — lower, 0.377
- SAPDSYIGIGN [SLC38A4_Y27] — lower, 0.533
- LKEIHYPPYTD [ALDH3B2_Y362] — lower, 0.744
- IRKTEYPFSSE [ATP2C1_Y452_A450T] — lower, 0.397
- EKLQKYYRKNP [EHHADH_Y682_Q685K] — lower, 0.484
- YKIYRYTLNDN [FN1_Y1975_L1974R] — lower, 0.557
- VYLGAYDCFLP [SLC22A5_Y486_R488C] — higher, 8.08
- PTTMTYFPHFD [HBA1_Y43_K41M] — lower, 0.577
- KRFRIYHLATS [BRCA2_Y3009_YF] — lower, 0.435
- PPSGEYFGHCG [TRIP6_Y275_Q278H] — higher, 1.02
- RLLRGYRQDAY [HLA-A_Y137_F133L] — lower, 0.611
- STKPQYQPGEN [SRC_Y530_E527K] — lower, 0.36
- RRIHSYRGHVW [VHL_Y112_L116V] — lower, 0.486
- IDQDKYAVHFI [FLNA_Y2388_R2391H] — lower, 0.547
- TLERHYKELQA [SPTBN2_Y834_E835K] — lower, 0.546
- KRGIDYILWHM [FRMD1_Y225_R228W] — lower, 0.824
- KIVQDYLEKFF [MMP8_Y36_T32I_YF] — lower, 0.595
- TKDTIYKQPMF [GBA_Y451_F450I] — lower, 0.439
- IKRIAYEFVEM [ADA_Y84] — lower, 0.478
- EKAEVYGSENE [RIOK2_Y348] — lower, 0.52
- QEVLEYFMKQM [PIK3CA_Y1038_A1035V] — higher, 0.993
- VVEVTYDDVPI [FLNB_Y1308] — higher, 1.07
- ANVKWYRNGRE — lower, 0.578
- HEEDNYIELIP [NWD2_Y566] — higher, 1.91
- HGQVNYEEFVQ [CALM2_Y139_D134H] — higher, 5.8
- KEDPEYKKKFR [FAM161A_Y278_E273K] — lower, 0.589
- GSERDYTFEEL [EIF2S2_Y174_YF] — lower, 0.598

Each sequence was assayed against FGFR1 (UniProt P11362) in the same assay as above.
Chain of FGFR1 (P11362 whole entry, looked up): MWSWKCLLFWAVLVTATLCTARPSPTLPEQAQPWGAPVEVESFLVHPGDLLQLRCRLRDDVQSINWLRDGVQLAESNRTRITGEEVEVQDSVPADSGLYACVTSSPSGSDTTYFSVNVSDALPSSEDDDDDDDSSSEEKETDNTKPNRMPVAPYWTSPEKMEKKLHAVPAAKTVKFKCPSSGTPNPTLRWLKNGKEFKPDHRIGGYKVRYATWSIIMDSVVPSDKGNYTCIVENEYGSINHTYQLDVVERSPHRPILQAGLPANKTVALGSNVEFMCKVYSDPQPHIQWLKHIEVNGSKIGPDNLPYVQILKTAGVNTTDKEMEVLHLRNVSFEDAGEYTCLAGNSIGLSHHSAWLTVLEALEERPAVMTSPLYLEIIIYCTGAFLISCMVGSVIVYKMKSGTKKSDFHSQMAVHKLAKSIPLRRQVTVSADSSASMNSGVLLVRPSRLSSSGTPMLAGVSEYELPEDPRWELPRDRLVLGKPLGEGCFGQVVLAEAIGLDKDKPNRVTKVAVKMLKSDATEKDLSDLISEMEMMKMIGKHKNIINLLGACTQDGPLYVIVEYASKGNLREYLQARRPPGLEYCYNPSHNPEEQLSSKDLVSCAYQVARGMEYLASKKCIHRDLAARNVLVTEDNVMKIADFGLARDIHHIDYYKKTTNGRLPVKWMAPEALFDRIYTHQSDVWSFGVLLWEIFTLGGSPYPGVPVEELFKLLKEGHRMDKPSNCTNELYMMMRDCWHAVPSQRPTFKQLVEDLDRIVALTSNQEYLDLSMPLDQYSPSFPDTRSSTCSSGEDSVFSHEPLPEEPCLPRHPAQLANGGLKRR

Point of comparison: KEDPEYKKKFR [FAM161A_Y278_E273K], phosphorylation enrichment 0.534. Against it:
- IRNRDYDDIDD [TTYH2_Y424_T419I] — higher, 0.7
- PSDLLYILDIQ [ITGA2B_Y845] — higher, 1.35
- MDFRSYPREFG [RBM10_Y44_YF] — lower, 0.529
- LARDIYKNDFF [ROS1_Y2110_YF] — higher, 0.68
- RAADFYSQQMA [GBP6_Y334_YF] — higher, 0.537
- AYRRGYFDEEM [PLEC_Y2971] — lower, 0.477
- SAPDSYIGIGN [SLC38A4_Y27] — lower, 0.502
- LKEIHYPPYTD [ALDH3B2_Y362] — higher, 0.645
- IRKTEYPFSSE [ATP2C1_Y452_A450T] — lower, 0.466
- EKLQKYYRKNP [EHHADH_Y682_Q685K] — lower, 0.45
- YKIYRYTLNDN [FN1_Y1975_L1974R] — lower, 0.439
- CEETFYTMKMN [MASP2_Y401_V405M] — higher, 0.666
- VYLGAYDCFLP [SLC22A5_Y486_R488C] — higher, 1.15
- PTTMTYFPHFD [HBA1_Y43_K41M] — higher, 2.97
- KRFRIYHLATS [BRCA2_Y3009_YF] — lower, 0.358
- PPSGEYFGHCG [TRIP6_Y275_Q278H] — higher, 0.698
- RLLRGYRQDAY [HLA-A_Y137_F133L] — higher, 0.608
- STKPQYQPGEN [SRC_Y530_E527K] — lower, 0.389
- RRIHSYRGHVW [VHL_Y112_L116V] — higher, 0.899
- IDQDKYAVHFI [FLNA_Y2388_R2391H] — lower, 0.468
- TLERHYKELQA [SPTBN2_Y834_E835K] — lower, 0.449
- KRGIDYILWHM [FRMD1_Y225_R228W] — higher, 1.33
- KIVQDYLEKFF [MMP8_Y36_T32I_YF] — higher, 0.616
- TKDTIYKQPMF [GBA_Y451_F450I] — lower, 0.406
- IKRIAYEFVEM [ADA_Y84] — higher, 0.564
- EKAEVYGSENE [RIOK2_Y348] — lower, 0.455
- QEVLEYFMKQM [PIK3CA_Y1038_A1035V] — higher, 0.954
- VVEVTYDDVPI [FLNB_Y1308] — higher, 0.742
- ANVKWYRNGRE — lower, 0.409
- HEEDNYIELIP [NWD2_Y566] — higher, 6.02
- HGQVNYEEFVQ [CALM2_Y139_D134H] — higher, 0.795
- GSERDYTFEEL [EIF2S2_Y174_YF] — higher, 0.602
